Among the data in publication PMC12102759 are screen value values, retold here.

B1: PIP5K1C peptide 640-655 (Phosphatidylinositol 4-phosphate 5-kinase type-1 gamma), 16-mer library wild type / TLN1 PTB (TLN1 Phosphotyrosine-binding (PTB) domain, residues 309-401) (parent)
chain 1: FPTDERSWVYSPLHYS
chain 2: GVSFFLVKEKMKGKNKLVPRLLGITKECVMRVDEKTKEVIQEWNLTNIKRWAASPKSFTLDFGDYQDGYYSVQTTEGEQIAQLIAGYIDIILK

In this assay the parent is B1. In words: proteomic peptide phage display deep mutational scan (ProP-PD DMS): M13 P8 16-mer library selected against immobilised GST-tagged bait for four days (rounds), NGS of the eluted pools per day and pseudo-replica. Particulars: with TLN1 PTB (TLN1 Phosphotyrosine-binding (PTB) domain, residues 309-401); bait immobilised on MaxiSorp plates (10 µg), library pre-cleared on GST, 2 h binding at 4 °C, five washes; one round per day, days 1-4; value from days 2 and 3; keep out of graded; scale: average fractional NGS count over selection days 2 and 3.
On to chain 1 FATDERSWVYSPLHYS [chain 1 P2A], for which the screen value was 4.1e-05.

For the variant chain 1 FRTDERSWVYSPLHYS [chain 1 P2R], the screen value is 5.46e-05.

As to chain 1 FWTDERSWVYSPLHYS [chain 1 P2W], the screen value was determined as 0.000111.

For chain 1 FLTDERSWVYSPLHYS [chain 1 P2L], the screen value is 0.000825.

For the variant chain 1 FNTDERSWVYSPLHYS [chain 1 P2N], the screen value worked out at 0.000183.

On to chain 1 FFTDERSWVYSPLHYS [chain 1 P2F], for which the screen value was 2.4e-05.

As to chain 1 FGTDERSWVYSPLHYS [chain 1 P2G], the screen value is 9.49e-05.

Consider chain 1 FETDERSWVYSPLHYS [chain 1 P2E], for which the screen value came to 0.000182.

chain 1 FTTDERSWVYSPLHYS [chain 1 P2T]: the screen value turned out to be 0.000173.

chain 1 FDTDERSWVYSPLHYS [chain 1 P2D]: the screen value is 0.000759.

With chain 1 FQTDERSWVYSPLHYS [chain 1 P2Q], the screen value worked out at 7.98e-05.

Regarding chain 1 FYTDERSWVYSPLHYS [chain 1 P2Y], the screen value was found to be 6.83e-05.

chain 1 FHTDERSWVYSPLHYS [chain 1 P2H]: the screen value is 2.4e-05.

On to chain 1 FSTDERSWVYSPLHYS [chain 1 P2S], for which the screen value turned out to be 0.000281.

For chain 1 FVTDERSWVYSPLHYS [chain 1 P2V], the screen value amounted to 0.000569.

In the case of chain 1 FPTDERSWVYSPLHHS [chain 1 Y15H], the screen value is 0.000526.

For the variant chain 1 FPTDERSWVYSPLHLS [chain 1 Y15L], the screen value was 3.79e-05.

On to chain 1 FPTDERSWVYSPLHSS [chain 1 Y15S], for which the screen value was 0.000401.

In the case of chain 1 FPTDERSWVYSPLHFS [chain 1 Y15F], the screen value was 0.00152.

chain 1 FPTDERSWVYSPLHWS [chain 1 Y15W]: the screen value was found to be 0.000911.

Turning to chain 1 FPTDERSWVYSPLHQS [chain 1 Y15Q], the screen value was 0.000147.

Turning to chain 1 FPTDERSWVYSPLHAS [chain 1 Y15A], the screen value was found to be 0.000656.

Turning to chain 1 FPTDERSWVYSPLHPS [chain 1 Y15P], the screen value is 0.000167.

Take chain 1 FPTDERSWVYSPLHMS [chain 1 Y15M]: the screen value came to 0.000141.

Take chain 1 FPTDERSWVYSPLHDS [chain 1 Y15D]: the screen value came to 0.00126.

With chain 1 FPTDERSWVYSPLHGS [chain 1 Y15G], the screen value amounted to 0.00057.

Turning to chain 1 FPTDERSWVYSPLHES [chain 1 Y15E], the screen value turned out to be 0.000347.

With chain 1 FPTDERSWVYSPLHNS [chain 1 Y15N], the screen value came out at 5.2e-05.

As for chain 1 FPTDERSWVYSPLHIS [chain 1 Y15I], the screen value was determined as 0.000186.

chain 1 FPTDERSWVYSPLHVS [chain 1 Y15V]: the screen value came out at 0.000186.

On to chain 1 FPTDEPSWVYSPLHYS [chain 1 R6P], for which the screen value amounted to 0.000213.

With chain 1 FPTDETSWVYSPLHYS [chain 1 R6T], the screen value is 0.000205.

Turning to chain 1 FPTDEGSWVYSPLHYS [chain 1 R6G], the screen value amounted to 5.92e-05.

As to chain 1 FPTDEQSWVYSPLHYS [chain 1 R6Q], the screen value was 9.86e-05.

Regarding chain 1 FPTDELSWVYSPLHYS [chain 1 R6L], the screen value is 0.000156.

For the variant chain 1 FPTDENSWVYSPLHYS [chain 1 R6N], the screen value was 8.35e-05.

For chain 1 FPTDESSWVYSPLHYS [chain 1 R6S], the screen value amounted to 0.00302.

With chain 1 FPTDEASWVYSPLHYS [chain 1 R6A], the screen value was 0.00241.

On to chain 1 FPTDEYSWVYSPLHYS [chain 1 R6Y], for which the screen value is 0.000115.

On to chain 1 FPTDEFSWVYSPLHYS [chain 1 R6F], for which the screen value was 0.

As for chain 1 FPTDEWSWVYSPLHYS [chain 1 R6W], the screen value was determined as 0.000249.

chain 1 FPTDEISWVYSPLHYS [chain 1 R6I]: the screen value was 0.000686.

As for chain 1 FPTDEESWVYSPLHYS [chain 1 R6E], the screen value was 0.

Take chain 1 FPTDEHSWVYSPLHYS [chain 1 R6H]: the screen value amounted to 3.76e-05.

Turning to chain 1 FPTDEDSWVYSPLHYS [chain 1 R6D], the screen value stood at 0.000455.

With chain 1 FPTDERSWYYSPLHYS [chain 1 V9Y], the screen value amounted to 0.000288.

As to chain 1 FPTDERSWQYSPLHYS [chain 1 V9Q], the screen value was 0.000257.

With chain 1 FPTDERSWAYSPLHYS [chain 1 V9A], the screen value is 0.000113.

For chain 1 FPTDERSWRYSPLHYS [chain 1 V9R], the screen value came to 0.000353.

For chain 1 FPTDERSWWYSPLHYS [chain 1 V9W], the screen value turned out to be 0.000872.

Regarding chain 1 FPTDERSWGYSPLHYS [chain 1 V9G], the screen value stood at 0.000185.

Regarding chain 1 FPTDERSWSYSPLHYS [chain 1 V9S], the screen value was determined as 0.000334.

For chain 1 FPTDERSWFYSPLHYS [chain 1 V9F], the screen value is 0.000141.

Turning to chain 1 FPTDERSWHYSPLHYS [chain 1 V9H], the screen value was determined as 0.000257.

In the case of chain 1 FPTDERSWNYSPLHYS [chain 1 V9N], the screen value was determined as 0.00995.

Consider chain 1 FPTDERSWKYSPLHYS [chain 1 V9K], for which the screen value is 0.000808.

As for chain 1 FPTDERSWDYSPLHYS [chain 1 V9D], the screen value was determined as 0.000489.

Turning to chain 1 FPTDERSWMYSPLHYS [chain 1 V9M], the screen value came out at 0.00044.

Regarding chain 1 FPTDERSWEYSPLHYS [chain 1 V9E], the screen value is 0.000929.

On to chain 1 FPTDERSGVYSPLHYS [chain 1 W8G], for which the screen value is 0.

As to chain 1 FPTDERSDVYSPLHYS [chain 1 W8D], the screen value came to 0.

Regarding chain 1 FPTDERSFVYSPLHYS [chain 1 W8F], the screen value came to 7.15e-05.

chain 1 FPTDERSWVYSILHYS [chain 1 P12I]: the screen value turned out to be 0.000302.

In the case of chain 1 FPTDERSWVYSALHYS [chain 1 P12A], the screen value is 0.000632.

chain 1 FPTDERSWVYSKLHYS [chain 1 P12K]: the screen value was found to be 5.51e-05.

Consider chain 1 FPTDERSWVYSRLHYS [chain 1 P12R], for which the screen value was 0.000314.

chain 1 FPTDERSWVYSMLHYS [chain 1 P12M]: the screen value was found to be 7.3e-05.

On to chain 1 FPTDERSWVYSLLHYS [chain 1 P12L], for which the screen value was found to be 0.000701.

On to chain 1 FPTDERSWVYSWLHYS [chain 1 P12W], for which the screen value was determined as 0.000107.

With chain 1 FPTDERSWVYSSLHYS [chain 1 P12S], the screen value amounted to 0.000121.

Take chain 1 FPTDERSWVYSHLHYS [chain 1 P12H]: the screen value amounted to 5.79e-05.

As to chain 1 FPTDERSWVYSVLHYS [chain 1 P12V], the screen value is 9.3e-05.

For chain 1 FPTDERSWVYSFLHYS [chain 1 P12F], the screen value stood at 7.27e-05.

For chain 1 FPTDERSWVYSGLHYS [chain 1 P12G], the screen value came out at 0.000862.

chain 1 FPTDERSWVYSQLHYS [chain 1 P12Q]: the screen value stood at 0.000705.

Take chain 1 FPTDERSWVYSNLHYS [chain 1 P12N]: the screen value stood at 0.000185.

With chain 1 FPTDERSWVYSELHYS [chain 1 P12E], the screen value came out at 0.00013.

Consider chain 1 FPTDERSWVYIPLHYS [chain 1 S11I], for which the screen value was determined as 0.

chain 1 FPTDERSWVYMPLHYS [chain 1 S11M]: the screen value amounted to 3.45e-05.

For the variant chain 1 FPTDERSWVYLPLHYS [chain 1 S11L], the screen value was 0.

For the variant chain 1 FPTDERSWVYAPLHYS [chain 1 S11A], the screen value came out at 7.18e-05.

For chain 1 FPTDERSWVYPPLHYS [chain 1 S11P], the screen value worked out at 7.58e-05.

Consider chain 1 FPTDERSWVYSPLHYP [chain 1 S16P], for which the screen value is 0.000199.

Turning to chain 1 FPTDERSWVYSPLHYA [chain 1 S16A], the screen value is 0.000894.

For the variant chain 1 FPTDERSWVYSPLHYY [chain 1 S16Y], the screen value turned out to be 0.000212.

chain 1 FPTDERSWVYSPLHYE [chain 1 S16E]: the screen value is 0.000308.

In the case of chain 1 FPTDERSWVYSPLHYL [chain 1 S16L], the screen value was 0.000143.

Consider chain 1 FPTDERSWVYSPLHYW [chain 1 S16W], for which the screen value came out at 3.45e-05.

Take chain 1 FPTDERSWVYSPLHYM [chain 1 S16M]: the screen value amounted to 0.000225.

In the case of chain 1 FPTDERSWVYSPLHYR [chain 1 S16R], the screen value was found to be 0.000132.

On to chain 1 FPTDERSWVYSPLHYQ [chain 1 S16Q], for which the screen value was found to be 5.76e-05.

Regarding chain 1 FPTDERSWVYSPLHYI [chain 1 S16I], the screen value worked out at 0.00119.

On to chain 1 FPTDERSWVYSPLHYV [chain 1 S16V], for which the screen value turned out to be 0.000729.

As for chain 1 FPMDERSWVYSPLHYS [chain 1 T3M], the screen value worked out at 2.4e-05.
